Measured values reported in patent US20210214435A1 (MorphoSys, published 2021).

T1: human GPVI (full-length) expressed on stably transfected CHO cells (human, UniProt Q9HCN6 21-339)
T1 chain: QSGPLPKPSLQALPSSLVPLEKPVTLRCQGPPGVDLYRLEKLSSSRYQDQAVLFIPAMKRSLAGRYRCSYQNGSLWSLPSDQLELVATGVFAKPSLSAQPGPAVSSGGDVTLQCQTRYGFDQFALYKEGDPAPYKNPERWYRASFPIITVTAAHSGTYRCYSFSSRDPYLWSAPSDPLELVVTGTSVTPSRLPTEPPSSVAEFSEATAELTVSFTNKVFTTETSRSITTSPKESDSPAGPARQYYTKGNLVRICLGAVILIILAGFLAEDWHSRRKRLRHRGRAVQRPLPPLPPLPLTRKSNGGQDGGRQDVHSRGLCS

T2: cynomolgus monkey GPVI (full-length) expressed on stably transfected CHO cells (cynomolgus monkey, UniProt Q9HCN6 21-339 (human entry))
T2 chain: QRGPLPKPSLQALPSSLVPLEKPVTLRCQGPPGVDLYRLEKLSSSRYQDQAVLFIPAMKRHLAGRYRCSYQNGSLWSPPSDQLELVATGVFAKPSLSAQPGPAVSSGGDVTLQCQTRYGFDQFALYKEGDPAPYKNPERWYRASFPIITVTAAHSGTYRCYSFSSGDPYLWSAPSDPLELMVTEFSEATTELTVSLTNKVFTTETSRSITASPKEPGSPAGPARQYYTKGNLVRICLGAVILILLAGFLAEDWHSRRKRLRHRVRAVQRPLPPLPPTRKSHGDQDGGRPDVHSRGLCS

T3: mouse GPVI (full-length) expressed on stably transfected CHO cells (mouse, UniProt P0C191 22-313)
T3 sequence: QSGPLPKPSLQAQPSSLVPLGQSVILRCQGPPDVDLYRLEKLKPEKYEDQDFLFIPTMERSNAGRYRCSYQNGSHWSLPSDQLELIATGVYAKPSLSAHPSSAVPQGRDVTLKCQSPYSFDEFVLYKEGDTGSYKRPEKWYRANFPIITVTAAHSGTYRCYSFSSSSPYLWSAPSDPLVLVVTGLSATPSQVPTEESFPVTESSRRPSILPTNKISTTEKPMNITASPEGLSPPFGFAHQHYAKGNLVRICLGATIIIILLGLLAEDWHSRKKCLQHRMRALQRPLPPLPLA

T4: mouse GPVI on the cell surface of mouse platelets (mouse, UniProt P0C191 22-313)
T4 construct: whole, on cells; also called GPVI on murine platelets
T4 sequence (looked up): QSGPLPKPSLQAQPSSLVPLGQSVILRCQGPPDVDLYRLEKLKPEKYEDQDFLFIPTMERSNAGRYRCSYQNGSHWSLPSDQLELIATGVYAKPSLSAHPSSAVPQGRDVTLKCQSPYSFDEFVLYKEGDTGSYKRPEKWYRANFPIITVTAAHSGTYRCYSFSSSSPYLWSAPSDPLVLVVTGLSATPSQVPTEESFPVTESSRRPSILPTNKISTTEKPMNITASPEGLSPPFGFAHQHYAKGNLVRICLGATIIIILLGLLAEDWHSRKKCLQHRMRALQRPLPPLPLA


Experiments:
[1] = molecular target: T1, human GPVI (full-length) expressed on …; assay: Cell ELISA (MSD) on CHO cells expressing GPVI
Method: (§1) CHO cells stably transfected with either human, cynomolgus monkey, or mouse GPVI (SEQ ID NO: 1, SEQ ID NO: 2, SEQ ID NO: 3, respectively and as described in Example 1) were seeded at a density of 5000 cells/well in growth medium on a 96 well high bind plate (Meso Scale Discovery) and cultivated overnight at 37° C. and 5% CO2. Cells were blocked with PBS supplied with 5% BSA and then incubated with Fab (comprising a modified heavy chain constant region) serially diluted to concentrations between 300 nM to 5 pM in PBS supplied with 0.5% BSA. After washing, bound Fab was detected using ECL-conjugated detection antibody directed against human F(ab′)2 fragment (Jackson Immuno Research). MSD read buffer (Meso Scale Discovery) was added to cells prior to readout in a Sector Imager6000 (Meso Scale Discovery). EC50 values were calculated using Prism 5 software (GraphPad).

[2] = molecular target: T2, cynomolgus monkey GPVI (full-length) …; assay: Cell ELISA (MSD) on CHO cells expressing GPVI
Method: as §1

[3] = molecular target: T3, mouse GPVI (full-length) expressed on …; assay: Cell ELISA (MSD) on CHO cells expressing GPVI
Method: as §1

[4] = molecular target: T5, mouse GPVI extracellular domain fused at its C-terminus to human IgG1 Fc (GPVI-Fc) (mouse; human); assay: ELISA on coated mouse GPVI-Fc
T5 construct: also called mGPVI; mouse GPVI-Fc

[5] = molecular target: T3, mouse GPVI (full-length) expressed on …; assay: Cell ELISA (MSD) on CHO cells expressing mouse GPVI
[6] = molecular target: T6, rat GPVI extracellular domain fused at its C-terminus to human IgG1 Fc (GPVI-Fc) (rat; human); assay: ELISA on coated rat GPVI-Fc
T6 construct: also called rGPVI
T6 sequence (chain, as listed by the source limits assumed): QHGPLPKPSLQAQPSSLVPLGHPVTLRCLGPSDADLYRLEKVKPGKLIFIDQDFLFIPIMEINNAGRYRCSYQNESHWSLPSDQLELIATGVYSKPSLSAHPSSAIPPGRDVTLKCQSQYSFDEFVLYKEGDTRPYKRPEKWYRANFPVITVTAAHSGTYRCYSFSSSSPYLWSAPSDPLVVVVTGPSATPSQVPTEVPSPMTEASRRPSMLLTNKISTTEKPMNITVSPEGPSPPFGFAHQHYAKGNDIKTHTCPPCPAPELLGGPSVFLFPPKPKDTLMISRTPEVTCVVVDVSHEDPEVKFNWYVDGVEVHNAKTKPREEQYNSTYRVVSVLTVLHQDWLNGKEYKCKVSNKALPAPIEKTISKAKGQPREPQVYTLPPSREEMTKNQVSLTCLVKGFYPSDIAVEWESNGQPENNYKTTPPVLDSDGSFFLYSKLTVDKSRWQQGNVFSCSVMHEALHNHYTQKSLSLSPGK

[7] = molecular target: T4, mouse GPVI on the cell surface of mouse …; assay: FACS on mouse platelets

Binder	EC50 [1]	EC50 [2]	EC50 [3]	binding result [4]	binding result [5]	binding result [6]	binding result [7]
Fab #1 comprising a modified heavy chain constant region (Fab, V domains shown, Human Fab from the Ylanthia library; produced in HKB11 cells; also called Fab #1 mod; HC) VH: QVQLVQSGAEVKKPGASVKVSCKASGYTFTSHYMHWVRQAPGQGLEWMGLIEPSEGETEYAQRFQGRVTMTRDTSTSTVYMELSSLRSEDTAVYYCARDSSRSYPLGFDIWGQGTLVTVSS VL: QSVLTQPPSVSAAPGQKVTISCSGSSSNIGNNYVSWYQQLPGTAPKLLIYDNNKRPSGIPDRFSGSKSGTSATLGITGLQTEDEADYYCAAWDFRSSRWVFGGGTKLTVLG	890 pM	740 pM	–	–	–	–	–
Fab #2 comprising a modified heavy chain constant region (Fab, V domains shown, Human Fab from the Ylanthia library; produced in HKB11 cells; also called Fab #2 mod; HC) VH: QVQLVESGGGLVKPGGSLRLSCAASGFSFSDHYMSWIRQAPGKGLEWVSSVGSEGKFIDYAASVKGRFTISRDNAKNSLYLQMNSLRAEDTAVYYCARHYREFRWHYYYFDYWGQGTLVTVSS VL: QSVLTQPPSVSGAPGQRVTISCTGSSSNIGAGYDVHWYQQLPGTAPKLLIYGNSNRPSGVPDRFSGSKSGTSASLAITGLQAEDEADYYCQSHDLGAHVWVFGGGTKLTVLG	780 pM	1060 pM	8280 pM	–	–	–	–

More lines, now with the values ahead:

EC50 [1]	EC50 [2]	EC50 [3]	binding result [4]	binding result [5]	binding result [6]	binding result [7]	Binder
780 pM	800 pM	930 pM	–	–	–	–	Fab #4 comprising a modified heavy chain constant region (Fab, V domains shown, Human Fab from the Ylanthia library; produced in HKB11 cells; also called Fab #4 mod; HC) VH: QVQLVQSGAEVKKPGASVKVSCKASGGAFTSSYMHWVRQAPGQGLEWMGIIEPTGASTLYAQRFQGRVTMTRDTSTSTVYMELSSLRSEDTAVYYCARTGIALPLGFDLWGQGTLVTVSS VL: QSVLTQPPSVSAAPGQKVTISCSGSSSNIGNNYVSWYQQLPGTAPKLLIYDNNKRPSGIPDRFSGSKSGTSATLGITGLQTEDEADYYCAAWSTRFRWVFGGGTKLTVLG
2800 pM	2090 pM	–	no binding	no binding	no binding	no binding	Reference Control Antibody RefFab #1 (humanized GPVI antibody of WO2011073954A2, SANOFI) (Fab, V domains shown, Cloned into mammalian Fab expression vectors; a glycine-serine linker (G4S)2 was added to the C-terminus of the Fab heavy chain) VH: EVQLLESGPGLVAPSGSLSITCTVSGFSLTGYGVNWVRQPPGKGLEWLGMIWGDGSTDYQSTLKSRLSISKDNSKSQVFLKMNSLRTDDTARYYCARDLPMDYWGLGTSVTVSS VL: DIQMTQSPSSLSASVGGRVTITCKASQDINKYIAWYQHKPGKGPSLLIHYTSTLQPGVPSRFSGSGSGRDYSFSISNLQPEDIATYYCLQYANLLTFGGGTKLEIKR
770 pM	1060 pM	3740 pM	–	–	–	–	Fab #3 comprising a modified heavy chain constant region (Fab, V domains shown, Human Fab from the Ylanthia library; produced in HKB11 cells; also called Fab #3 mod; HC) VH: QVQLVESGGGLVKPGGSLRLSCAASGFSFGDYYVSWIRQAPGKGLEWVSAIGGSGSAVQYAESVKGRFTISRDNAKNSLYLQMNSLRAEDTAVYYCARHYREFRWHYYYFDYWGQGTLVTVSS VL: QSVLTQPPSVSGAPGQRVTISCTGSSSNIGAGYDVHWYQQLPGTAPKLLIYGNSNRPSGVPDRFSGSKSGTSASLAITGLQAEDEADYYCQSHDLGAHVWVFGGGTKLTVLG
